The numbers were not newly measured in patent US20100068187A1, “TRANSCRIPTION FACTORS FOR DIFFERENTIATION OF ADULT HUMAN OLFACTORY PROGENITOR CELLS” (priority 2006, published 2010), which cites them from elsewhere.

The test system of this series is Human NSFCs. To be noted: incubated in the presence of neurotrophic factor.

B1: GDNF: glial-derived neurotrophic factor (protein, UniProt P39905 78-211, looked up)
Glial cell line-derived …: SPDKQMAVLPRRERNRQAAAANPENSRGKGRRGQRGKNRGCVLTAIHLNVTDLGLGYETKEELIFRYCSGSCDAAETTYDKILKNLSRNRRLVSDKVGQACCRPIAFDDDLSFLDDNLVYHILRKHSAKRCGCI
Turning to B1, the “neuronal differentiation of human NSFCs” value is “refractory to neuronal differentiation”.

B2: BDNF: brain-derived neurotrophic factor (protein, UniProt P23560 19-247, looked up)
Neurotrophic factor BDNF …: APMKEANIRGQGGLAYPGVRTHGTLESVNGPKAGSRGLTSLADTFEHVIEELLDEDQKVRPNEENNKDADLYTSRVMLSSQVPLEPPLLFLLEEYKNYLDAANMSMRVRRHSDPARRGELSVCDSISEWVTAADKKTAVDMSGGTVTVLEKVPVSKGQLKQYFYETKCNPMGYTKEGCRGIDKRHWNSQCRTTQSYVRALTMDSKKRIGWRFIRIDTSCVCTLTIKRGR
Turning to B2, the “neuronal differentiation of human NSFCs” value is given as “refractory to neuronal differentiation”.
